What was measured:
LDH-H variants [1] = assay: Intrinsic tryptophan fluorescence spectra of variants; format: physicochemical, human; details: variant 1.3 μM; λexc 286 nm; n = 6; pH 7.6
Experimental: All spectrophotometric experiments were performed with opaque 96-well plates using a Spectramax m2e spectrophotometer (Molecular Devices) following previously described procedures ([16]).
Full tryptophan fluorescence spectra were recorded using an excitation wavelength of 286 nm and recording the emission spectra from 320 to 400 nm at room temperature. The raw fluorescence of each experiment was subtracted to a corresponding control experiment without the protein. […] For dissociation in subunits, increasing amounts of guanidinium hydrochloride ranging from 0.3 to 2 M were put in contact with the studied proteins (1.3 μM), and fluorescence spectra were recorded afterward.

LDH-H variants [2] = assay: nanoDSF thermal denaturation of LDH-H variants; format: physicochemical, human; details: for nanoDSF denaturation pattern / Ratio 350/330 nm / Tm: n = 6; for nanoDSF denaturation pattern: in words; for Ratio 350/330 nm: nanoDSF fluorescence emission ratio; for Ratio 350/330 nm / Tm: pH 7.6; for Tm: Tycho NT.6, protein 25 to 65 μM, 50 mM sodium phosphate, 100 mM NaCl, 20% glycerol, mean ± SEM
Experimental: Solutions of proteins (LDH-H, LDH-Htr or variants), stored in a 50 mM sodium phosphate, 100 mM NaCl, and 20% glycerol, pH 7.6, were evaluated on a Tycho NT.6 device (NanoTemper Technologies) using concentrations ranging from 25 to 65 μM.

LDH-H oligomeric state = assay: Mass photometry of LDH-H, LDH-Htr and variants; format: physicochemical, human; details: for Oligomeric state in solution: in words; for Molecular weight (main oligomeric state): mean ± SD, one measurement, repeated at least 3 times with similar results, 1 μl of 1 μM stock into 16 μl PBS; for Relative intensity of dimer peak / Molecular weight of dimer peak / Molecular weight of tetramer peak / Relative intensity of tetramer peak: peak label in figure; for Molecular weight of dimer peak: theoretical dimer 78 kDa (LDH-H), 73.2 kDa (LDH-Htr); for Molecular weight of tetramer peak: theoretical tetramer 155 kDa (LDH-H)
Experimental: Protein landing was recorded using a Refeyn OneMP (Refeyn Ltd) MP system by adding 1 μl of the protein stock solution (1 μM) directly into a 16 μl drop of filtered PBS solution. Movies were acquired for 60 s (6.000 frames) with the AcquireMP (version 2.1.1; Refeyn Ltd) software using standard settings. Data were analyzed using default settings on DiscoverMP (version 2.1.1; Refeyn Ltd) ([44]). Contrast-to-mass calibration was performed prior to the experiments using a mix of proteins with molecular weights of 66, 146, 480, and 1048 kDa.

dimeric LDH-Htr [3] = assay: MST, peptide binding to LDH-Htr; set-up: species or system human; details: 1.5 s MST on time, n = 3, labeled LDH-Htr 100 nM, 50 mM sodium phosphate pH 7.6, 100 mM NaCl, 0.01% Tween-20, LP-22 value 'estimated'
Experimental: MST measurements were performed on a NanoTemper Monolith NT.115 instrument (NanoTemper Technologies) using red dye–N-Hydroxysuccinimide fluorescent labeling. LDH-Htr purified to homogeneity was labeled with the Monolith red dye–N-Hydroxysuccinimide second-generation labeling dye (NanoTemper Technologies), according to the supplied protocol. Measurements were performed in 50 mM sodium phosphate, pH 7.6, and 100 mM NaCl containing 0.01% Tween-20 in standard-treated capillaries (NanoTemper Technologies). The final concentration of proteins in the assay was 100 nM. Ligands were titrated in 1:1 dilutions following manufacturer's recommendations. Experiments were performed in triplicates using 40% light-emitting diode power, high MST power, laser on time 20 s and laser off time 3 s. Peptides were evaluated for their thermophoretic pattern, and Kds were extracted from raw data at a 1.5 s MST on time following the manufacturer's instructions.

tetrameric LDH-5 = tetrameric LDH-5 (Homo sapiens, UniProt P00338); assay: nanoDSF thermal shift of LDH-5 with peptide; format: binding
tetrameric LDH-1 = assay: WaterLOGSY NMR with LDH-1; format: binding, human; details: LDH-1 15 μM; LP-22 400 μM; 50 mM sodium phosphate pH 7.6, 100 mM NaCl, 10% heavy water; 277 K
Experimental: (§1) Human LDH-H (full length and truncated)-6-His proteins for 1D NMR were expressed and purified from E. coli, as described previously. All experiments were performed on an Ascend Avance III 600 MHz system equipped with a broadband cryoprobe (Bruker) following a previously described procedure ([16]).
(§2) For WaterLOGSY NMR studies, samples were prepared in 10% heavy water containing 50 mM sodium phosphate buffer, pH 7.6, and 100 mM NaCl. The concentration of LDHs was ranging from 15 to 20 μM of monomer. Ligand binding was detected using a WaterLOGSY ephogsygpno.2 avance-version sequence with a 1 s mixing time, 4096 scans were collected at 277 K to yield a 16 K points free induction decay. Water signal suppression was achieved using an excitation-sculpting scheme, and a 50 ms spinlock was used to suppress protein background signals.

dimeric LDH-Htr [4] = details: LDH-Htr 15 μM; peptide 500 μM; n = 3; 50 mM sodium phosphate, 100 mM NaCl, pH 7.6; stabilization
Experimental: Solutions of proteins (LDH-1, LDH-5, or LDH-Htr) with peptides were evaluated on a Tycho NT.6 device. Evaluations were performed in a 50 mM sodium phosphate and 100 mM NaCl (pH 7.6) buffer. According to standard manufacturer's procedures, samples were poured into capillaries and heated up to 95 °C in 3 min, while following fluorescence emission at 330 and 350 nm. Melting temperatures were extracted from the derivative of the 350/330 nm fluorescence ratios upon increasing temperature.

dimeric LDH-Htr [5] = assay: WaterLOGSY NMR with LDH-Htr; format: binding, human; details: LDH-Htr 15 μM; LP-22 400 μM; 50 mM sodium phosphate pH 7.6, 100 mM NaCl, 10% heavy water; 277 K
Experimental: as §1, §2

Row | EC50 (tetrameric LDH-5; read-out: EC50 (destabilization of tetrameric LDH, ΔTm vs peptide concentration)) [µM] | Molecule | Tryptophan fluorescence intensity compared with LDH-1 (LDH-H variants [1]) | nanoDSF denaturation pattern (LDH-H variants [2]) | Ratio 350/330 nm (LDH-H variants [2]) | Tm (LDH-H variants [2]; nanoDSF) [°C] | Oligomeric state in solution (LDH-H oligomeric state) | Molecular weight (main oligomeric state) (LDH-H oligomeric state) [kDa] | Relative intensity of dimer peak (LDH-H oligomeric state) [%] | Molecular weight of dimer peak (LDH-H oligomeric state) [kDa] | Molecular weight of tetramer peak (LDH-H oligomeric state) [kDa] | Kd (dimeric LDH-Htr [3]) [µM] | WaterLOGSY saturation transfer with tetrameric LDH-1 (tetrameric LDH-1) | ΔTm of dimeric LDH-Htr (dimeric LDH-Htr [4]) [°C] | Dependence of LDH destabilization on protein concentration (tetrameric LDH-5; nanoDSF, Fig. S2) | WaterLOGSY saturation transfer with dimeric LDH-Htr (dimeric LDH-Htr [5]) | Relative intensity of tetramer peak (LDH-H oligomeric state) [%] | Tm difference versus LDH-Htr (LDH-H variants [2]; nanoDSF, higher than LDH-Htr) [°C]
1 |  | E62A: LDH-H recombinant alanine variant | decays in fluorescence intensity characteristic of the dimeric forms of LDHs | denaturation patterns comparable to dimeric LDH-Htr | 0.95 | 58.9 ± 0.1 | behaving mainly as dimers in solution | 77 ± 18 | 77 | 77 | 145 |  |  |  |  |  |  | 
2 | 262 | Ac-GEMMDLQHGSLFLQTP-NH2 [GP-16] |  |  |  |  |  |  |  |  |  | 240 |  |  |  |  |  | 
3 |  | CSCC[C@H](NC(=O)[C@H](CCC(=O)O)NC(=O)CNC(=O)[C@H](CCCCN)NC(=O)[C@H](CC(C)C)NC(=O)[C@H](CCCCN)NC(=O)[C@H](CC(=O)O)NC(=O)[C@H](CCC(=O)O)NC(=O)[C@@H](N)CC(C)C)C(=O)N[C@@H](CCSC)C(=O)N[C@@H](CC(=O)O)C(=O)N[C@@H](CC(C)C)C(=O)N[C@@H](CCC(N)=O)C(=O)N[C@@H](Cc1c[nH]cn1)C(=O)NCC(=O)N[C@@H](CO)C(=O)N[C@@H](CC(C)C)C(=O)N[C@@H](Cc1ccccc1)C(=O)N[C@@H](CC(C)C)C(=O)N[C@@H](CCC(N)=O)C(=O)N[C@H](C(=O)N1CCC[C@H]1C(N)=O)[C@@H](C)O [LP-22] |  |  |  |  |  |  |  |  |  | 156 | not with the tetrameric LDH-1 | 2.8 | an increasing amount of subunit reverted the effect | undergoes a saturation transfer with dimeric LDH-Htr |  | 
4 |  | F72A: LDH-H recombinant alanine variant | decays in fluorescence intensity characteristic of the dimeric forms of LDHs | denaturation patterns comparable to dimeric LDH-Htr | 0.94 | 53.9 ± 0.1 | behaving mainly as dimers in solution | 70 ± 17 | 79 | 70 | 141 |  |  |  |  |  | 19 | 
5 |  | L71A: LDH-H recombinant alanine variant |  | a lower initial ratio and a red shift | 0.90 | 67.1 ± 0.1 | behaving as a mixture of tetramers and dimers | 148 ± 12 | 36 | 72 | 148 |  |  |  |  |  | 56 | 10
